The values below come from PMC10349104.

“And” between values parts separate entries of the source, which are not always exact repeats. Equal entries are not always repeated. Where two headings read alike, the source gives them in different places.

The target of test [1] is T1, EVA-4, P0C8E9.
T1 chain: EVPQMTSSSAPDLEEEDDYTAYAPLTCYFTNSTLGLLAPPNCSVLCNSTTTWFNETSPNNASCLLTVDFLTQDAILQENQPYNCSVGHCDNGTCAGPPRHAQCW
The experiment in a line: not stated; Kd of EVA-4 for human chemokines, three readings (source data of Supplementary Fig. 7); method and conditions not told for EVA-4.

Test [2] addresses EVA-A(L39P) (Amblyomma americanum). The experiment in a line: SPR. A general note: In SPR one partner is held on a chip, and binding of the other changes the refractive index at the surface.
For test [3], the target named is EVA-A(Y44A) (Amblyomma americanum). The experiment in a line: SPR.
The target of test [4] is EVA-A(C8) (Amblyomma americanum). The experiment in a line: SPR.
The target of test [5] is EVA-A(DN) (Amblyomma americanum). The experiment in a line: SPR.
Test [6] concerns the target EVA-AAM1001 (Amblyomma americanum). The experiment in a line: SPR.
The mark [7] stands for this setting: remark: other sources report otherwise.

B1: CCL4, P13236 24-92 (ligand)
chain: APMGSDPPTACCFSYTARKLPRNFVVDYYETSSLCSQPAVVFQTKRSKQVCADPSESWVQEYVYDLELN
A word on the Kd: it is the free concentration of one partner at which half of the binding sites on the other are occupied at equilibrium, for simple one-to-one binding. Low values mean a tighter complex, high ones a looser complex. In the case of B1, in test [1] (setting [7]), the Kd is 212 nM and 126 nM and 137 nM.

B2: CCL15 (ligand)
chain: QFTNDAETELMMSKLPLENPVVLNSFHFAADCCTSYISQSIPCSLMKSYFETSSECSKPGVIFLTKKGRQVCAKPSGPGVQDCMKKLKPYSI
modifications: not checked
As a reminder, the koff is a measure of how fast the partners let go of each other. Low readings indicate slow dissociation, high ones fast dissociation. For orientation: kon means a measure of how fast the partners come together. Low readings indicate slower complex formation, high ones faster complex formation. With B2, the Kd in test [2] (setting [7]) was 26.9 nM and 23 nM and 29.8 nM; in test [3] (setting [7]), 80.9 nM and 215 nM and 188 nM; in test [4] (setting [7]), 714 nM and 467 nM and 550 nM; in test [5] (setting [7]) it was 35.6 nM and 33.6 nM and 33 nM; in test [6] (setting [7]) it was 1.7 nM and 1.77 nM and 1.85 nM; in test [1], 287 nM and 216 nM and 218 nM. The koff in test [2] (setting [7]) was 0.0026 s⁻¹ and 0.00246 s⁻¹ and 0.00303 s⁻¹; in test [3] (setting [7]), 0.00852 s⁻¹ and 0.0138 s⁻¹ and 0.0129 s⁻¹; in test [4] (setting [7]) it was 0.0149 s⁻¹ and 0.0104 s⁻¹ and 0.013 s⁻¹; in test [5] (setting [7]), 0.00216 s⁻¹ and 0.00209 s⁻¹ and 0.00218 s⁻¹; in test [6] (setting [7]), 0.000308 s⁻¹ and 0.000311 s⁻¹ and 0.000314 s⁻¹. In addition, the kon in test [2] (setting [7]) was 96500 M⁻¹ s⁻¹ and 107000 M⁻¹ s⁻¹ and 101000 M⁻¹ s⁻¹; in test [3] (setting [7]) it was 105000 M⁻¹ s⁻¹ and 64300 M⁻¹ s⁻¹ and 68500 M⁻¹ s⁻¹; in test [4] (setting [7]), 20800 M⁻¹ s⁻¹ and 22300 M⁻¹ s⁻¹ and 23700 M⁻¹ s⁻¹; in test [5] (setting [7]), 60800 M⁻¹ s⁻¹ and 62100 M⁻¹ s⁻¹ and 66000 M⁻¹ s⁻¹; in test [6] (setting [7]), 182000 M⁻¹ s⁻¹ and 175000 M⁻¹ s⁻¹ and 170000 M⁻¹ s⁻¹.

B3: CCL14 (ligand)
chain: TKTESSSRGPYHPSECCFTYTTYKIPRQRIMDYYETNSQCSKPGIVFITKRGHSVCTNPSDKWVQDYIKDMKEN
modifications: not checked
As to B3, the Kd is 0.0403 nM and 0.0431 nM and 0.0505 nM in test [2]; 0.12 nM and 0.125 nM and 0.0725 nM in test [3]; 1.09 nM and 1.16 nM and 1.66 nM in test [4]; 0.12 nM and 0.109 nM and 0.11 nM in test [5]; 0.0551 nM and 0.0372 nM and 0.0569 nM in test [6]; 0.765 nM and 1.17 nM and 1.14 nM in test [1]. Besides, the koff in test [3] was 6.21e-05 s⁻¹ and 5.76e-05 s⁻¹ and 3.35e-05 s⁻¹; in test [4], 0.000525 s⁻¹ and 0.00045 s⁻¹ and 0.000476 s⁻¹; in test [5], 8.54e-05 s⁻¹ and 7.6e-05 s⁻¹ and 7.69e-05 s⁻¹; in test [6] it was 6.24e-05 s⁻¹ and 5.52e-05 s⁻¹ and 6.41e-05 s⁻¹. Further, the kon in test [3] is 519000 M⁻¹ s⁻¹ and 462000 M⁻¹ s⁻¹; in test [4], 482000 M⁻¹ s⁻¹ and 389000 M⁻¹ s⁻¹ and 288000 M⁻¹ s⁻¹; in test [5], 714000 1/(M s) and 697000 1/(M s) (2×); in test [6] it was 1.1e+06 1/(M s) (2×) and 1.5e+06 1/(M s).
